T1: GC1 (GC-E, ROS-GC1, RetGC1) (Homo sapiens, UniProt Q02846)
T1 construct: gene GUCY2D
T1 sequence (Q02846 52-1103): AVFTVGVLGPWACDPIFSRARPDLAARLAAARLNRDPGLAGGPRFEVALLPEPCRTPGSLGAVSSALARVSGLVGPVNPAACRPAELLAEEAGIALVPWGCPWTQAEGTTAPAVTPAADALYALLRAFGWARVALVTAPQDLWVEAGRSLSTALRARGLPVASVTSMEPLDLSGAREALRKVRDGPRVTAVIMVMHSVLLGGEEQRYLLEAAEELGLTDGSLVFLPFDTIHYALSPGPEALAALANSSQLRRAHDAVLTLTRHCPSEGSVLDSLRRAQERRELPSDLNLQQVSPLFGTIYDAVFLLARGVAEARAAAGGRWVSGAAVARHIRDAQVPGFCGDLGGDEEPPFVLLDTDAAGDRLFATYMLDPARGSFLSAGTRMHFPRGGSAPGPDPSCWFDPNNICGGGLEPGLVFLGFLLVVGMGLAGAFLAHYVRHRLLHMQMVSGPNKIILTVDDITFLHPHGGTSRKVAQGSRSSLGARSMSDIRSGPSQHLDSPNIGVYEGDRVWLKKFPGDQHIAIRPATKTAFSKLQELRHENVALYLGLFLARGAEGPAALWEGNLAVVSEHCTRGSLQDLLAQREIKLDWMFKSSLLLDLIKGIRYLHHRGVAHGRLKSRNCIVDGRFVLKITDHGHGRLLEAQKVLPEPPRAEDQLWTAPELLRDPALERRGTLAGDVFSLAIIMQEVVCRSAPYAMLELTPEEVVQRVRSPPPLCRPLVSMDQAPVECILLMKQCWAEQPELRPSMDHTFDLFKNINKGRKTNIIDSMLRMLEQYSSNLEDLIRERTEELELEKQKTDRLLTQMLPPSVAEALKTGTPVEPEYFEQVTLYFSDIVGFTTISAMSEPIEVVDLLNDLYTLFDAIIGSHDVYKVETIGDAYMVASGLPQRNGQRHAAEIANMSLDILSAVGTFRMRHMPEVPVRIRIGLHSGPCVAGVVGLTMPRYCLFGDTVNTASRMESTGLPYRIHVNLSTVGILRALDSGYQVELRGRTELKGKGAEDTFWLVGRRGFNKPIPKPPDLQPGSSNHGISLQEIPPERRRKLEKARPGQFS
T1 sequence (O95843 2-209 partner): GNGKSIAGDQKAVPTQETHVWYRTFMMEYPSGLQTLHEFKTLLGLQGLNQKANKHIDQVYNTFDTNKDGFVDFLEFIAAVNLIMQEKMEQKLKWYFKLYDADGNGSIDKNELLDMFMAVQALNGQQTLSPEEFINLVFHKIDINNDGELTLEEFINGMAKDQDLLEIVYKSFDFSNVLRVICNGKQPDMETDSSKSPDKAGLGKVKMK


Experiments:
[1] = biological target: T1, GC1 (GC-E, ROS-GC1, RetGC1); assay: cGMP production by reversed-phase HPLC; format: biochemical; settings: GC1 membranes, 1 mM free Mg2+, low (<19 nM) or high (~30 µM) Ca2+, pH 7.4; basal and with mGCAP3 or mGCAP1
[2] = biological target: the molecule itself; assay: SEC; analytical SEC, Superose 12 10/300GL, ~40 µM protein loaded, 20 mM Tris-HCl pH 7.5, 150 mM KCl, 1 mM DTT, 500 µM EGTA (apo), 25 °C; apparent MM from a calibration curve
[3] = biological target: the molecule itself; assay: SEC; analytical SEC, Superose 12 10/300GL, ~40 µM protein loaded, 20 mM Tris-HCl pH 7.5, 150 mM KCl, 1 mM DTT, 1 mM Mg2+ and 500 µM Ca2+, 25 °C; apparent MM from a calibration curve

Molecule | stoichiometry N [2] | further results
Nc1nc2c(ncn2[C@@H]2O[C@@H]3COP(=O)(O)O[C@H]3[C@H]2O)c(=O)[nH]1 [cGMP] | – | cGMP production by reversed-phase HPLC [1]: The production of cGMP was analyzed by reversed phase HPLC
non-myristoylated wild-type human GCAP3 (guanylate cyclase-activating protein 3) (natural protein, UniProt O95843-1 1-209, looked up, Cloned into a plasmid named pET11-E6S; also called nmWT; nmWT GCAP3) MGNGKSIAGDQKAVPTQETHVWYRTFMMEYPSGLQTLHEFKTLLGLQGLNQKANKHIDQVYNTFDTNKDGFVDFLEFIAAVNLIMQEKMEQKLKWYFKLYDADGNGSIDKNELLDMFMAVQALNGQQTLSPEEFINLVFHKIDINNDGELTLEEFINGMAKDQDLLEIVYKSFDFSNVLRVICNGKQPDMETDSSKSPDKAGLGKVKMK | 2 | –
myristoylated wild-type human GCAP3 (guanylate cyclase-activating protein 3) (natural protein, UniProt O95843-1 1-209, looked up, N-terminal myristoylation (degree of myristoylation 58.35%), Cloned into a plasmid named pET11-E6S; The sample is a mix of about 58% myristoylated and the rest non-myristoylated protein; also called mWT; mWT GCAP3) MGNGKSIAGDQKAVPTQETHVWYRTFMMEYPSGLQTLHEFKTLLGLQGLNQKANKHIDQVYNTFDTNKDGFVDFLEFIAAVNLIMQEKMEQKLKWYFKLYDADGNGSIDKNELLDMFMAVQALNGQQTLSPEEFINLVFHKIDINNDGELTLEEFINGMAKDQDLLEIVYKSFDFSNVLRVICNGKQPDMETDSSKSPDKAGLGKVKMK | 2 | –
non-myristoylated D101H variant of human GCAP3 (natural protein, UniProt O95843-1 1-209, looked up, Variant found in a patient with retinitis pigmentosa; Cloned into a plasmid named pET11-E6S; also called nmD101H; nmD101H GCAP3) MGNGKSIAGDQKAVPTQETHVWYRTFMMEYPSGLQTLHEFKTLLGLQGLNQKANKHIDQVYNTFDTNKDGFVDFLEFIAAVNLIMQEKMEQKLKWYFKLYHADGNGSIDKNELLDMFMAVQALNGQQTLSPEEFINLVFHKIDINNDGELTLEEFINGMAKDQDLLEIVYKSFDFSNVLRVICNGKQPDMETDSSKSPDKAGLGKVKMK | – | stoichiometry N [3]: 2

— article PMC8948881, “Molecular Properties of Human Guanylate Cyclase-Activating Protein 3 (GCAP3) and Its Possible Association with Retinitis Pigmentosa” (International Journal of Molecular Sciences, 2022)
